Patent US20240254222A1 (Bayer, published 2024)

T1: Mouse Semaphorin3A-Sema Domain, TPP-19069 (mouse, UniProt O08665 21-569)
T1 construct: produced inhouse
T1 sequence: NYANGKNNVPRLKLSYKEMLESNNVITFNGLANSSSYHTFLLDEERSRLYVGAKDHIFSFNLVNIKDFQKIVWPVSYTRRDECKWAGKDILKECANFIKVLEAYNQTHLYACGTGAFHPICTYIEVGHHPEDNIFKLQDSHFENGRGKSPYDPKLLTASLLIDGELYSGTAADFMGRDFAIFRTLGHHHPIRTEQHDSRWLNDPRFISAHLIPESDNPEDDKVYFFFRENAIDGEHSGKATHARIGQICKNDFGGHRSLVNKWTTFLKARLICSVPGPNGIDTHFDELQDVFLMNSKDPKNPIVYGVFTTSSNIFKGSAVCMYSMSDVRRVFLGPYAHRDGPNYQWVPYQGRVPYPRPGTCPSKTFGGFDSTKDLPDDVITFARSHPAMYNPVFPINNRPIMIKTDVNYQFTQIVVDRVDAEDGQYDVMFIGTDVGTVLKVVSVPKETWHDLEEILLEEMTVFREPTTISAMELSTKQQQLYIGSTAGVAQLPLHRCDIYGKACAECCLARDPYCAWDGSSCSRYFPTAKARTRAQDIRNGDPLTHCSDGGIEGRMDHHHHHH

T2: Human Semaphorin3A-Sema Domain, TPP-19068 (human, UniProt Q14563 21-569)
T2 construct: produced inhouse in HEK293-6E; also called human monovalent Sema3A domain
T2 sequence: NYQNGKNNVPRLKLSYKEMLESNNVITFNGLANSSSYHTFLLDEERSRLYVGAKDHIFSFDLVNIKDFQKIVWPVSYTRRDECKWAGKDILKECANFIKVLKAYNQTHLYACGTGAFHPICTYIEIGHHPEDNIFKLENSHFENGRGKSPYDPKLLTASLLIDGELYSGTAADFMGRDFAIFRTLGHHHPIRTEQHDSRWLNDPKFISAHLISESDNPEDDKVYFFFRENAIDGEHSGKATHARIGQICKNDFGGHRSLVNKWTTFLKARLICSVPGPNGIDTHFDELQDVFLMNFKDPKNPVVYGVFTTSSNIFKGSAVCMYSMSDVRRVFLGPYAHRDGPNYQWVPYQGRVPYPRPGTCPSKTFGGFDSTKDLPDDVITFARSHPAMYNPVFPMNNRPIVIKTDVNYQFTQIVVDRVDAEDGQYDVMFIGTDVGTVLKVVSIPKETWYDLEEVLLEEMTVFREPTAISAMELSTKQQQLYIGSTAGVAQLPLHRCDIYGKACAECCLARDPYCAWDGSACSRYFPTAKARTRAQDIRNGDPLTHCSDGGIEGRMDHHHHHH


Legend:
[1] = target: T1, Mouse Semaphorin3A-Sema Domain, …; experiment: SPR, captured antibody, Sema3A domain analyte
Protocol: (§1) To assess the binding activity of anti-Sema3A antibodies binding assays were conducted using surface plasmon resonance (SPR). Binding assays were performed on a Biacore T200 instrument (Cytiva) at 25° C. using assay buffer HBS P+, 300 mM NaCl, 0.75 mM CaCl₂, 2.5 mM MgCl₂, 1 mg/ml BSA, 0.05% NaN₃. Antibodies were captured via anti-human Fc IgGs (“Human antibody capture kit”, Order No. BR100839, Cytiva) covalently amine coupled to a Series S CM5 sensor chip (Cytiva). The amine coupling was carried out according to the manufacturer's instructions using 1-ethyl-3-(3-dimethylaminopropyl) carbodiimide hydrochloride (EDC), N-hydroxysuccinimide (NHS) and ethanolamine HCl, pH 8.5 (“Amine Coupling Kit” BR-1000-50, Cytiva.). Human, mouse, cynomolgus, rat, dog and pig monovalent Sema3A domain were used as analytes in a concentration series from 0.024-3.125 nM in multi cycle kinetics mode. The sensor surface was regenerated with glycine pH 2.0 after each antigen injection. Obtained sensorgrams were double referenced (subtraction of reference flow cell signal and buffer injection) and were fitted to a 1:1 Langmuir binding model using the Biacore T200 Evaluation software obtaining the experimental fitted RMax value. To calculate the binding activity first the theoretical RMax needs to be calculated according to equation 1: […]
(§2) Binding activity was determined by dividing the experimental determined RMax by the theoretical calculated RMax according to equation 2: […]

[2] = target: T2, Human Semaphorin3A-Sema Domain, …; experiment: SPR, captured antibody, Sema3A domain analyte
Protocol: as §1, §2

[3] = target: T3, Human Semaphorin3A-Fc (R&D Systems), TPP-13211 (human); experiment: competition ELISA on coated TPP-13211, competitor biotinylated TPP-15370
T3 construct: R&D Systems 1250-S3; also called recombinant human Sema3A-Fc chimera
Protocol: For screening in a competition ELISA setup, human Sema3a (TPP-13211) was coated onto 384-well plates (Greiner bio-one, 781077) with a concentration of 0.5 μg/ml in coating buffer (Carbonate-Basis pH 9.6, Candor 121125) over night at 10° C. After washing the plates 3 times with 50 μl PBS 0.05% Tween the plates were blocked with 50 μl Smart Block® (Candor 113500) for 1 h at 20° C. and washed again 3 times as described.
Subsequently, 20 μl of pre-mixed antibody solution was added to the plates and incubate for 18 h at 10° C. […] The total concentration of the added antibody solution was 0.25 μg/ml. During the incubation time the antibodies bound to the plates in a competitive manner as they compete for the same epitope on the human Sema3A protein.
After subsequent washing with 50 μl PBS 0.05% Tween for 3 times, 20 μl of a Streptavidin-HRP solution (R&D Systems, DY998, 1:200 in PBS 0.05% Tween 10% Smart Block) were added and incubated for 1 h and 20° C. followed by subsequent washing 3 times with 50 μl PBS 0.05% Tween and addition of 20 μl Amplex Red solution (Invitrogen A12222, 1:1000 in NaP-buffer 50 mM pH7.6 with 1:10000 of 30% H2O2). After a final incubation for 20 min at 20° C. the signal was determined using an emission wavelength of 595 nm and excitation of 530 nm.

T3 sequence (chain, as listed by the source limits assumed): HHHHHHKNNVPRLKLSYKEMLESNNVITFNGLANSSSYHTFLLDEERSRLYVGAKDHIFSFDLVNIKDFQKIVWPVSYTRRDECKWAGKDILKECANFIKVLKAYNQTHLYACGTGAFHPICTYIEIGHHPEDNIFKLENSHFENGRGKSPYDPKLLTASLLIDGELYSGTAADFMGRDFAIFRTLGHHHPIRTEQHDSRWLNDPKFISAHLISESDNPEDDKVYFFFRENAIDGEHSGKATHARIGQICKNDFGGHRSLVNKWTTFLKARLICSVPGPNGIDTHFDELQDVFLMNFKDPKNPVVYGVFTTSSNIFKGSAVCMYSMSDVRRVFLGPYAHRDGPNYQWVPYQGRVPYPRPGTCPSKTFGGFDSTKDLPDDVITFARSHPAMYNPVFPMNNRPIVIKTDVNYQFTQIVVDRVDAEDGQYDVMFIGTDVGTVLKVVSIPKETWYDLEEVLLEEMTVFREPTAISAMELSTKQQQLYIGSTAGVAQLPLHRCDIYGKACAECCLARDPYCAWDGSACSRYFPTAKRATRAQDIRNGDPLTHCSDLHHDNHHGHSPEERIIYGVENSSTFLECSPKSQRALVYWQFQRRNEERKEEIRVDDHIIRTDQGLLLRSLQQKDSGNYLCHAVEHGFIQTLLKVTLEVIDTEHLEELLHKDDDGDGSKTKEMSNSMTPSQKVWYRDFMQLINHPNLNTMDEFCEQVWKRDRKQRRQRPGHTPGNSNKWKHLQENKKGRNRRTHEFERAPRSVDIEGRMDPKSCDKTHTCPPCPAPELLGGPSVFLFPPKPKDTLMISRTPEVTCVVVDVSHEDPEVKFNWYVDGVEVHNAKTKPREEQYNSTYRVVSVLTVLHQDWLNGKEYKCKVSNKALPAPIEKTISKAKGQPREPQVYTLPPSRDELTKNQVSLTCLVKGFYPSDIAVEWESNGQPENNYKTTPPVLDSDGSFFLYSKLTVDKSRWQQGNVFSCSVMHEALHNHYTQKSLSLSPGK

Row | Binder | Binding Activity [%] [1] | Binding Activity [%] [2] | VAL norm to TPP-9809 (1 to 1 ratio) [3] | VAL norm to TPP-9809 (1 to 5 ratio) [3]
1 | TPP-11489 (antibody, human IgG1, lambda, human IgG1; also called Chiome; Chiome Prior Art (hIgG1)) heavy: not shown light: SYELTQPPSVSVSPGQTARITCSGGGSYTGSYYYGWYQQKPGQAPVTVIYYNNKRPSDIPERFSGSLSGTTNTLTISGVQAEDEADYYCGSADNSGDAFGTGTKVTVLGQPKAAPSVTLFPPSSEELQANKATLVCLISDFYPGAVTVAWKADSSPVKAGVETTTPSKQSNNKYAASSYLSLTPEQWKSHRSYSCQVTHEGSTVEKTVAPTECS | 118% | 38% |  | 
2 | TPP-15374 (antibody, human IgG1, lambda, V domains shown, human IgG1; also called IgG1, hit from panning; parental mAb) VH: EVQLLESGGGLVQPGGSLRLSCAASGFTFSSYEMNWVRQAPGKGLEWVSGISWNSGSIGYADSVKGRFTISRDNSKNTLYLQMNSLRAEDTAVYYCARSGYSSSWFDPDFDYWGQGTLVTVSS VL: QSVLTQPPSASGTPGQRVTISCTGSSSNIGAGYDVHWYQQLPGTAPKLLIYGNSNRPSGVPDRFSGSKSGTSASLAISGLRSEDEADYYCSSYAGSNPYVVFGGGTKLTVLG | 106% | 10% |  | 

More lines, now with the values ahead:

Row | Binding Activity [%] [1] | Binding Activity [%] [2] | VAL norm to TPP-9809 (1 to 1 ratio) [3] | VAL norm to TPP-9809 (1 to 5 ratio) [3] | Binder
3 | 108% | 107% | 0.18 | 0.09 | TPP-23298 (antibody, human IgG4 S228P, lambda, V domains shown) VH: EVQLLESGGGLVQPGGSLRLSCAASGFTFYSYAMSWVRQAPGKGLEWVSAIGTGGDTYYADSVKGRFTISRDNSKNTLYLQMNSLRAEDTAVYYCARRDDYTSRDAFDYWGQGTLVTVSS VL: not shown
4 | 11% | 112% | 0.67 | 0.54 | TPP-15370 (antibody, human IgG1, lambda, V domains shown, human IgG1; also called IgG1, hit from panning; parental mAb) VH: EVQLLESGGGLVQPGGSLRLSCAASGFTFSSYGMHWVRQAPGKGLEWVSAIGTGGDTYYADSVMGRFTISRDNSKNTLYLQMNSLRAEDTAVYYCARRDDYTSRDAFDVWGQGTLVTVSS VL: not shown
